Test results from the supplement of paper PMC12455559.
± gives the standard deviation of the averaged measurements.

What was measured:
[1] = melting temperature (DSF); higher = more thermostable
In short: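 Enzymes made in E. coli C41(DE3) were nickel-bead purified and cut free with SUMO protease before testing. Differential scanning fluorimetry gave each melting temperature. For this, 5 μL 5X Sypro Orange was added to 45 μL enzyme (0 to 0.3 mg/mL) in sealed PCR plates, and a Bio-Rad CFX96 read fluorescence from 25 °C over 250 cycles of 0.3 °C each, ramping at 0.3 °C/s.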

[2] = purified protein yield per well (BCA); higher = higher soluble expression
In short: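 Expression was done in E. coli C41(DE3), using 2 mL autoinduction cultures with 100 µg/mL kanamycin incubated at 37 °C for 2 h and at 18 °C for 40 h. Protein was purified on Ni-charged magnetic beads and released by SUMO protease cleavage. Yield of purified protein per well was measured with the Pierce Rapid Gold BCA kit; values below 25 ug (0.1 mg/mL) are below detection.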

[3] = PET hydrolysis, aromatic products released after 48 h (umol product/mg enzyme); higher = more PET depolymerization activity
In short: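 Amorphous PET film or crystalline PET powder (3.5 mg) in 450 μL of 50 mM NaCitrate (pH 4.5, 5.5), 50 mM NaPhosphate (pH 6.5, 7.5) or glycine (pH 8.5) received 5 μg (50 μL) of candidate enzyme. That enzyme was purified on nickel beads and freed of its tag by SUMO cleavage. After 48 h at 40 or 60 °C in sealed plates without shaking, absorbance of the supernatant at 260 and 280 nm was read against buffer blanks. PET hydrolysis activity is this aromatic product expressed per mg enzyme.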

[4] = substrate: cryPow, 40 °C, pH 5.5
[5] = substrate: cryPow, 40 °C, pH 6.5
[6] = substrate: cryPow, 40 °C, pH 7.5
[7] = substrate: cryPow, 40 °C, pH 8.5
[8] = substrate: cryPow, 60 °C, pH 5.5
[9] = substrate: cryPow, 60 °C, pH 6.5
[10] = substrate: cryPow, 60 °C, pH 7.5
[11] = substrate: aFilm, 40 °C, pH 4.5
[12] = substrate: aFilm, 40 °C, pH 5.5
[13] = substrate: aFilm, 40 °C, pH 6.5
[14] = substrate: aFilm, 40 °C, pH 7.5
[15] = substrate: aFilm, 60 °C, pH 4.5
[16] = substrate: aFilm, 60 °C, pH 5.5
[17] = substrate: aFilm, 60 °C, pH 6.5
[18] = substrate: aFilm, 60 °C, pH 7.5
[19] = substrate: cryPow, 40 °C, pH 4.5
[20] = substrate: cryPow, 60 °C, pH 4.5

| Sequence | melting temperature [1] [C] | purified protein yield per well [2] [µg] | PET hydrolysis [3, 4] | PET hydrolysis [3, 5] | PET hydrolysis [3, 6] | PET hydrolysis [3, 7] | PET hydrolysis [3, 8] | PET hydrolysis [3, 9] | PET hydrolysis [3, 10] | PET hydrolysis ([3]; substrate: cryPow, 60 °C, pH 8.5) | PET hydrolysis [3, 11] | PET hydrolysis [3, 12] | PET hydrolysis [3, 13] | PET hydrolysis [3, 14] | PET hydrolysis [3, 15] | PET hydrolysis [3, 16] | PET hydrolysis [3, 17] | PET hydrolysis [3, 18] | PET hydrolysis [3, 19] | PET hydrolysis [3, 20] |
| --- | --- | --- | --- | --- | --- | --- | --- | --- | --- | --- | --- | --- | --- | --- | --- | --- | --- | --- | --- | --- |
| ATTSYQRGPNPTEQSVRAANGPFAYSQFAIPDAEATGFGEGTIYYPNNTSVGTFGGVVIAPGFNADQNSTVWLGKRLASHGFVAVTITTHELNDQPYERGKQILAALDYLTGQSPAFVRSRLDPARLAAVGHSMGGGGTLFAAAQRPSLKAIVPLAPWALAKNWSNVQVPTMILSGAQDASAPPAEHAEKFYASLTSAPEKAYAKLDVNHVRFAWEHPLIGKLVVSWLKRFVDEDTRYTQFLCPTATGAVLLEYRATCPLG [DP026] | 66.1 | 164 | 3 | < 3 | < 3 | < 3 | < 3 | < 3 | < 3 | < 3 | – | – | – | – | – | – | – | – | – | – |
| ATYERGPAPTAQSIVADGPFSYATVAVPTQSSFGGGTIYYPTDTNQGTFGAVAVIPGFVGSLDNVAWIGSRLASHGFVVFTVATTNPFAFPGDRAAQLQAALTYLTQSSSVRDRVDPNRLAVAGHSMGGGGALEAVRNNPALKAAVALQPWDFGQNFSAIAVPSMIVGAQNDQVATVTSHSEPFYDQIPAGAEKAYLELAGAGHDAGQSVSNATQAGSMLSWLKRYVDEDTRYEQFLCPAPSGPSVAEYRDTCPA [DP045] | 45.7 | 37 | < 3 | < 3 | < 3 | < 3 | – | – | – | – | – | – | – | – | – | – | – | – | – | – |
| AVHGPDPTDALLEASRGPYATAQIDVSALAVSGFGGGTIYYPTTTSEGTFGGVAIAPGYTADKSSLAWLAARLASHGFVVFNIDTLTRLDQPDSRGRQLLAALDYLTQRSSVRSRVDASRLGVMGHSMGGGGTLEAAVSRPSLRAAVPLTPWNLDKTWPEVRTPTLIIGADLDTIAPVLTHAEPFYASLPSTLDKAYLELNNATHFAPNITDTTIGKYAVAWMKRFIDDDTRYNRFLCPGPSWSLSVEEYRSTCPF [TEP061] | 51.4 | 299 | < 3 | < 3 | 2 ± 2.8 | – | < 3 | < 3 | < 3 | – | < 3 | < 3 | < 3 | < 3 | < 3 | < 3 | < 3 | < 3 | < 3 | < 3 |
| CVTPAPPPAPDVATVTVGAGNGFGGGTIYYPQGATGRLPVVAASPGFTENQNAVGWYGPLLAREGNIVITIDTNSPFDSPTSRADQLLAAIDYVVNRSSVASIADGSRTAVMGHSMGGGGSLEAALKRPGLKAIIPLAPWNTTTNFSGVRVPTLIVGCQNDAIAPVGSHAEPFYQSIPATTPKAYLEIAGGDHFCTNSENPTIANYVVAWTDRFLQGDTSASSRLCPPPPAGGSISEYRANCPY [ESM050] | 82.3 | 236 | 50.5 ± 11 | 84.5 ± 6.4 | 134 ± 8.5 | – | 106 ± 2.1 | 132 ± 11 | 140 ± 12 | – | < 3 | 5 | 15.5 ± 0.71 | 7.5 ± 0.71 | 5 | 22.5 ± 5 | 15 ± 1.4 | 10.5 ± 0.71 | 13.5 ± 0.71 | 40 ± 1.4 |
| DDGYQRGPDPTEESIEAPRGTFEIGMAVVTRASADGFGGGTVYYPTDTSEGTFGAVAVSPGYSSSQAAIAWLGPRLASQGFVVFTIDTLSTSDSPTRRGDQVLAALSFLGRTELADRIDPDRLAVMGHSMGGGGSLEAAKDYPALQAIVPMTPWSVDKTFPEVTAPTLVIGAEDDVVARPRSHAEPIYESLPADGDKAYLELRDASHSAPSAPNTLIARYSLSWLKRYVDDDERYQQFLCPPPAVDDEISEYRSTCA [DP089] | 52 | < 25 | < 3 | 4 | 19 | 20 | – | – | – | – | – | – | – | – | – | – | – | – | – | – |
| DEIGQAPTAGNITGNGSFTTTSESISSLVSGFGGGRVYYPTTAGKYPVVAISPGFTATWSSLSWIGPRLSSWGFVVVGIETNSIYDQPASRGSQLLAALNWAVNSSSSAVRARVDGSRRGVAGHSMGGGGTLEALAADTTGLVKAGVPIAPWNSDKTWNNVSEPVMIVGGQSDTVAPVASHSIPFYNTLAGPKGYVELTGASHFFPQSTNATLSRALVAWFKRWLNQDSRFTPYTCGFSGLAVSDFRSNAC [ESM090] | 68.5 | 116 | 27 | 46 | 65 | – | 12 | 35 | 51 | – | – | – | – | – | – | – | – | – | < 3 | < 3 |
| DEIGQAPTASNITGNGSFATTSASISSTVAGFGGGRVYYPTATGTYPVIAISPGFTATWSSLSWIGPRLSSWGFVVVGIETNSIYDQPGSRGSQLLAALNWAVSSSPTAVRSRVDGSRRGVAGHSMGGGGTLEALAADTSGLVKAGVPLAPWNSDKTWNNVSEPVLIVGGQSDTIAPVSSHSVPFYNTLAGPKTYVELTGASHFFPQSSNATTSRALVSWFKRWLNQDSRFTPFTCGFSGAAVSSFRTNAC [ESM093] | 65.2 | 93.2 | 25 | 44 | 72 | – | 7 | 23 | 39 | – | – | – | – | – | – | – | – | – | < 3 | < 3 |
